Results reported in patent US20220396758.

Key:
[1] = test system: substrate protein S1 (single N-terminal Smt3 domain, 65-amino-acid charged flexible tail, C-terminal 11 amino acid ssrA tag)
[2] = test system: substrate protein S2-148 (two Smt3 domains separated by an extended 148 amino acid linker, charged tail, C-terminal ssrA tag)
[3] = test system: substrate protein S2-35 (two Smt3 domains separated by a 35 amino acid linker, charged tail, C-terminal ssrA tag)

For “covalently-linked trimer of an N-terminal truncated ClpX variant (ClpX-ΔN3)”, the “ClpX-dependent ionic current ramp (ramping state iii), average current” value [1] was “a progressive downward current ramp reaching an average of ~10 pA with a median duration of 4.3 seconds”, the “ClpX-dependent ionic current ramp (ramping state iii), median duration” value [1] was “a progressive downward current ramp reaching an average of ~10 pA with a median duration of 4.3 seconds” and the “ClpX-dependent ionic current ramp (ramping state iii), number of events” value [1] was “This current ramp was observed with protein S1 a total of 45 times over ~5.5 hours of experimentation when ClpX and ATP were present; in contrast, the ramp was never observed following state ii when ClpX and ATP were absent from the trans solution over ~2.3 hours of experimentation”. For the same substance, the “translocation events that included ramping state iii, number of events” value [2] was “Translocation events that included ramping state iii were observed ... 66 times for protein S2-148 (4.3 hours of experimentation), when ClpX and ATP were present. In the absence of ClpX/ATP, these ramping states were never observed ... for S2-148 (1.2 hours of experimentation)”, the “second ramping state vi, ionic current” value [3] was “This was followed by a ~8.5 pA state (FIG. 2C, vi) that closely resembled ramping state iii” and the “translocation events that included ramping state iii, number of events” value [3] was “Translocation events that included ramping state iii were observed 62 times for protein S2-35 (7.3 hours of experimentation) ... when ClpX and ATP were present. In the absence of ClpX/ATP, these ramping states were never observed for S2-35 (1.7 hours of experimentation)”.
